For this data set, the target named is T1, ETS1 (Homo sapiens, UniProt P14921).
T1 sequence: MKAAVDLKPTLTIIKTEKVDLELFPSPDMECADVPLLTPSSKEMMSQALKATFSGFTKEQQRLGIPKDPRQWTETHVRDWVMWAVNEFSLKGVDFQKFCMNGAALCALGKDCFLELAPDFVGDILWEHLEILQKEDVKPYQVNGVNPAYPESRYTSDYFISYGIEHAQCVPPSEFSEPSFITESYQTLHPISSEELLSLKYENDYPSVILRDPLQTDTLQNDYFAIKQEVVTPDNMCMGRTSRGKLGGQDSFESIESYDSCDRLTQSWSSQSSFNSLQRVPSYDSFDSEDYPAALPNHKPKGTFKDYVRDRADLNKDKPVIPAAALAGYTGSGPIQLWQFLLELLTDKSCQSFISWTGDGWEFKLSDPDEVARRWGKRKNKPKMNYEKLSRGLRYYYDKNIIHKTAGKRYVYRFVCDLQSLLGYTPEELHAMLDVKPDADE
Nature of the data set: gcPBM; 1 nM ETS1. Particulars: tags: N-terminal GST (pDEST15), kept (PMC6008103); label: surface-attached array probe.

B1: Table S2 B row 2231 (dsDNA)
DNA 1: GCGCCCTCCAGGAAACGCCGCGATTTACTGTCTGCC
DNA 2: GGCAGACAGTAAATCGCGGCGTTTCCTGGAGGGCGC
With B1, the binding signal is 1190 PBM fluorescence, median of replicate spots.

B2: Table S2 B row 3245 (dsDNA)
DNA 1: GCGCCCGGAAGGAAGGCTGGGGTAGGTTGTAGTTTC
DNA 2: GAAACTACAACCTACCCCAGCCTTCCTTCCGGGCGC
B2: the binding signal was 1030 PBM fluorescence, median of replicate spots.

B3: Table S2 C row 62 (dsDNA)
DNA 1: GAGCATCTTGAGGTCTGTGGTTCAGCTACCAGCCCC
DNA 2: GGGGCTGGTAGCTGAACCACAGACCTCAAGATGCTC
B3: the binding signal was 296 PBM fluorescence, median of replicate spots.

B4: Table S2 C row 122 (dsDNA)
DNA 1: AGAGACAGTAGCAGCCGCGGTGACTGGCGGCCTCCT
DNA 2: AGGAGGCCGCCAGTCACCGCGGCTGCTACTGTCTCT
On to B4, for which the binding signal was 296 PBM fluorescence, median of replicate spots.

B5: Table S2 C row 98 (dsDNA)
DNA 1: AAAACCATCTTTAGGACCGCGGCCCCTTTAAGCGGC
DNA 2: GCCGCTTAAAGGGGCCGCGGTCCTAAAGATGGTTTT
Consider B5, for which the binding signal was 284 PBM fluorescence, median of replicate spots.

B6: Table S2 B row 234 (dsDNA)
DNA 1: GGGGGAATGTAGGAAGTATCATCGCCTACAAGAAAG
DNA 2: CTTTCTTGTAGGCGATGATACTTCCTACATTCCCCC
Turning to B6, the binding signal is 948 PBM fluorescence, median of replicate spots.

B7: Table S2 B row 2750 (dsDNA)
DNA 1: CTAGTCTGTTTCCTCATCTGCCGCCTGCACGCCCGC
DNA 2: GCGGGCGTGCAGGCGGCAGATGAGGAAACAGACTAG
With B7, the binding signal was 985 PBM fluorescence, median of replicate spots.

B8: Table S2 B row 1508 (dsDNA)
DNA 1: GCTCCCTTCCTGAGCCTCTGCTGGCCTCACCAGAGG
DNA 2: CCTCTGGTGAGGCCAGCAGAGGCTCAGGAAGGGAGC
On to B8, for which the binding signal was 849 PBM fluorescence, median of replicate spots.

B9: Table S2 B row 2289 (dsDNA)
DNA 1: GAGGAAAGGAAGTCAAGGCCAGGGCCGAAGAGGCCA
DNA 2: TGGCCTCTTCGGCCCTGGCCTTGACTTCCTTTCCTC
In the case of B9, the binding signal is 1410 PBM fluorescence, median of replicate spots.

B10: Table S2 B row 1799 (dsDNA)
DNA 1: AGCGGCCGAAGGAAGTGACGTTTGGGGCAGTAAGGC
DNA 2: GCCTTACTGCCCCAAACGTCACTTCCTTCGGCCGCT
B10: the binding signal is 1090 PBM fluorescence, median of replicate spots.

B11: Table S2 B row 1479 (dsDNA)
DNA 1: CAGATTCCCGGAAAGGGGGACATGTAGCCGCCAAAG
DNA 2: CTTTGGCGGCTACATGTCCCCCTTTCCGGGAATCTG
Consider B11, for which the binding signal is 1360 PBM fluorescence, median of replicate spots.

B12: Table S2 B row 2389 (dsDNA)
DNA 1: TCTGCACATCCGAGAAGCCTCCGTGCTTTGCTGCCA
DNA 2: TGGCAGCAAAGCACGGAGGCTTCTCGGATGTGCAGA
Consider B12, for which the binding signal is 803 PBM fluorescence, median of replicate spots.

B13: Table S2 B row 3871 (dsDNA)
DNA 1: CCTGAGAGATCCGGCGCGCGTCTTCCACCAAAATGC
DNA 2: GCATTTTGGTGGAAGACGCGCGCCGGATCTCTCAGG
Turning to B13, the binding signal is 1260 PBM fluorescence, median of replicate spots.

B14: Table S2 B row 3719 (dsDNA)
DNA 1: GACCTGGGCAGGAAGAGCGGCATTTGGGGCCCCCTG
DNA 2: CAGGGGGCCCCAAATGCCGCTCTTCCTGCCCAGGTC
For B14, the binding signal was 1120 PBM fluorescence, median of replicate spots.

B15: Table S2 B row 1447 (dsDNA)
DNA 1: GCAGAAGGAAGTGTGGCTTGGCGCCGTGGCTCACAC
DNA 2: GTGTGAGCCACGGCGCCAAGCCACACTTCCTTCTGC
Turning to B15, the binding signal was 817 PBM fluorescence, median of replicate spots.

B16: Table S2 B row 1484 (dsDNA)
DNA 1: CCCGGAAACTCAACTGCCCACTGCAGCGCCCGCCAT
DNA 2: ATGGCGGGCGCTGCAGTGGGCAGTTGAGTTTCCGGG
B16: the binding signal is 830 PBM fluorescence, median of replicate spots.

B17: Table S2 B row 3605 (dsDNA)
DNA 1: GGGCTTCCCGGGTACAAAAATGGCTGTCGCTAGCGA
DNA 2: TCGCTAGCGACAGCCATTTTTGTACCCGGGAAGCCC
As for B17, the binding signal was 1230 PBM fluorescence, median of replicate spots.

B18: Table S2 B row 40 (dsDNA)
DNA 1: TTGCGTCATTTCCGAGAGACTTTCGCGCCGCTGTTT
DNA 2: AAACAGCGGCGCGAAAGTCTCTCGGAAATGACGCAA
As to B18, the binding signal is 1300 PBM fluorescence, median of replicate spots.

B19: Table S2 B row 1867 (dsDNA)
DNA 1: TCAGGAAGTGGTGTGACCAGCATGTGAACAGCGGCA
DNA 2: TGCCGCTGTTCACATGCTGGTCACACCACTTCCTGA
As to B19, the binding signal is 936 PBM fluorescence, median of replicate spots.

B20: Table S2 C row 184 (dsDNA)
DNA 1: CCAGCTAAGCGAGGGGCCGCAGGGAGCGCGGCCTCG
DNA 2: CGAGGCCGCGCTCCCTGCGGCCCCTCGCTTAGCTGG
Turning to B20, the binding signal was 274 PBM fluorescence, median of replicate spots.

B21: Table S2 B row 4028 (dsDNA)
DNA 1: GCCTGAAGGACTTCCGGGAACCGAAAAGCACGGTGT
DNA 2: ACACCGTGCTTTTCGGTTCCCGGAAGTCCTTCAGGC
On to B21, for which the binding signal was 19300 PBM fluorescence, median of replicate spots.

B22: Table S2 C row 143 (dsDNA)
DNA 1: CGGCCCCGCTGAGGGGCCGCAAGGACGAGGACGCCT
DNA 2: AGGCGTCCTCGTCCTTGCGGCCCCTCAGCGGGGCCG
Take B22: the binding signal was 300 PBM fluorescence, median of replicate spots.

B23: Table S2 B row 411 (dsDNA)
DNA 1: CGCCCTCCGGAAGAGAGGGCGGACAGCGCCCGCGCC
DNA 2: GGCGCGGGCGCTGTCCGCCCTCTCTTCCGGAGGGCG
For B23, the binding signal was 1330 PBM fluorescence, median of replicate spots.

B24: Table S2 B row 3799 (dsDNA)
DNA 1: GCAAAGATACATCCTTCTCCCCAGAGACTAAGTTTC
DNA 2: GAAACTTAGTCTCTGGGGAGAAGGATGTATCTTTGC
With B24, the binding signal is 1150 PBM fluorescence, median of replicate spots.

B25: Table S2 B row 935 (dsDNA)
DNA 1: CAGTGGCAGTAGCCGTTTGGCCCTTCCTGCCCTGGG
DNA 2: CCCAGGGCAGGAAGGGCCAAACGGCTACTGCCACTG
Regarding B25, the binding signal was 882 PBM fluorescence, median of replicate spots.

B26: Table S2 B row 3361 (dsDNA)
DNA 1: GAACTACGTTTCCCGGCATGCACTGCAGGCCGCCGG
DNA 2: CCGGCGGCCTGCAGTGCATGCCGGGAAACGTAGTTC
B26: the binding signal is 787 PBM fluorescence, median of replicate spots.

B27: Table S2 B row 3926 (dsDNA)
DNA 1: GCTGTCCGTTTCCGAGATGTTAATGCGAGGTCTTGC
DNA 2: GCAAGACCTCGCATTAACATCTCGGAAACGGACAGC
Consider B27, for which the binding signal was 1060 PBM fluorescence, median of replicate spots.

B28: Table S2 B row 1424 (dsDNA)
DNA 1: TGCTTGTCCGGTGGCTGCTGCGCTGCCGAAACGAAT
DNA 2: ATTCGTTTCGGCAGCGCAGCAGCCACCGGACAAGCA
As to B28, the binding signal was 1420 PBM fluorescence, median of replicate spots.

B29: Table S2 C row 25 (dsDNA)
DNA 1: CCAGCCCGGCCTCGGACCGCGGCACCCCTCCTGGCC
DNA 2: GGCCAGGAGGGGTGCCGCGGTCCGAGGCCGGGCTGG
On to B29, for which the binding signal is 312 PBM fluorescence, median of replicate spots.

B30: Table S2 B row 1617 (dsDNA)
DNA 1: ACCACCCCCAGAGACAAACTCACATCCTCTCCCTAG
DNA 2: CTAGGGAGAGGATGTGAGTTTGTCTCTGGGGGTGGT
Take B30: the binding signal was 1010 PBM fluorescence, median of replicate spots.

B31: Table S2 C row 199 (dsDNA)
DNA 1: AGCTCAGGCACCAGCTGAGGTTTGGCATTTGCTGGC
DNA 2: GCCAGCAAATGCCAAACCTCAGCTGGTGCCTGAGCT
Turning to B31, the binding signal is 296 PBM fluorescence, median of replicate spots.

B32: Table S2 C row 51 (dsDNA)
DNA 1: CTTGGGAGTCCCTGCCGCGGTGACTCCCTGGGAGCT
DNA 2: AGCTCCCAGGGAGTCACCGCGGCAGGGACTCCCAAG
In the case of B32, the binding signal was 261 PBM fluorescence, median of replicate spots.

B33: Table S2 B row 2233 (dsDNA)
DNA 1: GCGCCATTTCCGCTGCGCAAGGCACCTCAGGCCCTG
DNA 2: CAGGGCCTGAGGTGCCTTGCGCAGCGGAAATGGCGC
In the case of B33, the binding signal is 18700 PBM fluorescence, median of replicate spots.

B34: Table S2 B row 2334 (dsDNA)
DNA 1: CCCCTCGCCCTTCCGCATTGCGTGTTACTTCGGTTG
DNA 2: CAACCGAAGTAACACGCAATGCGGAAGGGCGAGGGG
With B34, the binding signal was 1460 PBM fluorescence, median of replicate spots.

B35: Table S2 B row 3244 (dsDNA)
DNA 1: CCCGCTGTCACTTCCTGCTTCCCTCCCGCGCACGTG
DNA 2: CACGTGCGCGGGAGGGAAGCAGGAAGTGACAGCGGG
Regarding B35, the binding signal is 19700 PBM fluorescence, median of replicate spots.

B36: Table S2 C row 16 (dsDNA)
DNA 1: AAAAGCCCATGGGCACCCACAGCTTTGTCACAGTGC
DNA 2: GCACTGTGACAAAGCTGTGGGTGCCCATGGGCTTTT
As to B36, the binding signal was 288 PBM fluorescence, median of replicate spots.

B37: Table S2 B row 2446 (dsDNA)
DNA 1: GGAACGGAGGCGGAAGGGGCCCTTCGGCGACGACGT
DNA 2: ACGTCGTCGCCGAAGGGCCCCTTCCGCCTCCGTTCC
As to B37, the binding signal was 869 PBM fluorescence, median of replicate spots.

B38: Table S2 B row 2956 (dsDNA)
DNA 1: CTCTGAAGGAAGTGATGTTAGACGGCTGTAGGTGGT
DNA 2: ACCACCTACAGCCGTCTAACATCACTTCCTTCAGAG
Regarding B38, the binding signal is 910 PBM fluorescence, median of replicate spots.

B39: Table S2 B row 2753 (dsDNA)
DNA 1: AGTTGCTTCCTAATCCTGCTGAGCCATTAGCCCCAA
DNA 2: TTGGGGCTAATGGCTCAGCAGGATTAGGAAGCAACT
Regarding B39, the binding signal was 1170 PBM fluorescence, median of replicate spots.

The values are drawn from PMC10681739, “High-throughput data and modeling reveal insights into the mechanisms of cooperative DNA-binding by transcription factor proteins”.
